According to the supplement of paper PMC10567573:

B1: PLK2 (parent)
chain: YAELGQCSVFPATDAPEQFISQVT
B2: ADD1 (parent)
chain: GEGTGSPPKWQIGEQEFEALMRML

Variants of: B1
Test: protein stability index of a GFP-peptide fusion (GPS, HEK-293T) (PSI 1-6); higher = more stable
Conditions: c terminus: a fixed tail appended
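Further: lentivirally expressed fusions sorted by FACS into six bins by GFP to DsRed ratio, PSI derived from sequencing read proportions per bin multiplied by bin number.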

**Q.** With YAELGQCSVFPATDAPEQFISQVG as the variant, how does the protein stability index read?
**A.** 2.31

**Q.** For YAELGQCSVFPATDAPEQFISYVT, which protein stability index is on record?
**A.** 1.86

**Q.** Which protein stability index does the source give for YAELGQCSVFPATDWPEQFISQVT here?
**A.** 2.29

**Q.** With YAELGQCSVFPATDAPEIFISQVT as the variant, how does the protein stability index read?
**A.** 2.02

**Q.** Which protein stability index does the source give for YAELGQCSSFPATDAPEQFISQVT here?
**A.** 3.34

**Q.** Which protein stability index does the source give for YAELYQCSVFPATDAPEQFISQVT here?
**A.** 2.22

**Q.** Which protein stability index does the source give for YAVLGQCSVFPATDAPEQFISQVT here?
**A.** 2.31

**Q.** For YAELGQCSVFPATDAPEQFIKQVT, which protein stability index is on record?
**A.** 2.35

**Q.** For YAELGQCSVFPATDAPEGFISQVT, which protein stability index is on record?
**A.** 2.82

**Q.** For YAELGQCSVFPATDAFEQFISQVT, which protein stability index is on record?
**A.** 1.64

**Q.** For YYELGQCSVFPATDAPEQFISQVT, which protein stability index is on record?
**A.** 2.43

**Q.** With YAELGQNSVFPATDAPEQFISQVT as the variant, how does the protein stability index read?
**A.** 1.89

**Q.** With YAELGQCSVFPAMDAPEQFISQVT as the variant, how does the protein stability index read?
**A.** 2.11

Variants of: B2
Test: as above
Conditions: c terminus: a fixed tail appended

**Q.** With AEGTGSPPKWQIGEQEFEALMRML as the variant, how does the protein stability index read?
**A.** 3.28

**Q.** With CEGTGSPPKWQIGEQEFEALMRML as the variant, how does the protein stability index read?
**A.** 2.88

**Q.** For DEGTGSPPKWQIGEQEFEALMRML, which protein stability index is on record?
**A.** 3.66

**Q.** Which protein stability index does the source give for EEGTGSPPKWQIGEQEFEALMRML here?
**A.** 3.57

**Q.** For FEGTGSPPKWQIGEQEFEALMRML, which protein stability index is on record?
**A.** 3.06

**Q.** For HEGTGSPPKWQIGEQEFEALMRML, which protein stability index is on record?
**A.** 3.1

**Q.** Which protein stability index does the source give for IEGTGSPPKWQIGEQEFEALMRML here?
**A.** 2.92

**Q.** Which protein stability index does the source give for KEGTGSPPKWQIGEQEFEALMRML here?
**A.** 2.91

**Q.** Which protein stability index does the source give for LEGTGSPPKWQIGEQEFEALMRML here?
**A.** 3.32

**Q.** For MEGTGSPPKWQIGEQEFEALMRML, which protein stability index is on record?
**A.** 2.71

**Q.** For NEGTGSPPKWQIGEQEFEALMRML, which protein stability index is on record?
**A.** 3.51

**Q.** Which protein stability index does the source give for PEGTGSPPKWQIGEQEFEALMRML here?
**A.** 3.26

**Q.** For QEGTGSPPKWQIGEQEFEALMRML, which protein stability index is on record?
**A.** 3.24

**Q.** For REGTGSPPKWQIGEQEFEALMRML, which protein stability index is on record?
**A.** 3.26

**Q.** With SEGTGSPPKWQIGEQEFEALMRML as the variant, how does the protein stability index read?
**A.** 2.99

**Q.** Which protein stability index does the source give for TEGTGSPPKWQIGEQEFEALMRML here?
**A.** 2.94

**Q.** With VEGTGSPPKWQIGEQEFEALMRML as the variant, how does the protein stability index read?
**A.** 2.49

**Q.** With WEGTGSPPKWQIGEQEFEALMRML as the variant, how does the protein stability index read?
**A.** 2.54

**Q.** For YEGTGSPPKWQIGEQEFEALMRML, which protein stability index is on record?
**A.** 3.13

**Q.** With GCGTGSPPKWQIGEQEFEALMRML as the variant, how does the protein stability index read?
**A.** 3.14

**Q.** Which protein stability index does the source give for GDGTGSPPKWQIGEQEFEALMRML here?
**A.** 2.79

**Q.** For GFGTGSPPKWQIGEQEFEALMRML, which protein stability index is on record?
**A.** 2.73

**Q.** For GGGTGSPPKWQIGEQEFEALMRML, which protein stability index is on record?
**A.** 3.06

**Q.** For GHGTGSPPKWQIGEQEFEALMRML, which protein stability index is on record?
**A.** 2.96

**Q.** For GIGTGSPPKWQIGEQEFEALMRML, which protein stability index is on record?
**A.** 4.01

**Q.** For GKGTGSPPKWQIGEQEFEALMRML, which protein stability index is on record?
**A.** 2.3

**Q.** With GLGTGSPPKWQIGEQEFEALMRML as the variant, how does the protein stability index read?
**A.** 3.15

**Q.** Which protein stability index does the source give for GMGTGSPPKWQIGEQEFEALMRML here?
**A.** 2.91

**Q.** With GNGTGSPPKWQIGEQEFEALMRML as the variant, how does the protein stability index read?
**A.** 2.77

**Q.** With GPGTGSPPKWQIGEQEFEALMRML as the variant, how does the protein stability index read?
**A.** 3.06

**Q.** With GQGTGSPPKWQIGEQEFEALMRML as the variant, how does the protein stability index read?
**A.** 3.53

**Q.** For GRGTGSPPKWQIGEQEFEALMRML, which protein stability index is on record?
**A.** 3.16

**Q.** Which protein stability index does the source give for GSGTGSPPKWQIGEQEFEALMRML here?
**A.** 2.73

**Q.** For GTGTGSPPKWQIGEQEFEALMRML, which protein stability index is on record?
**A.** 3.33

**Q.** For GVGTGSPPKWQIGEQEFEALMRML, which protein stability index is on record?
**A.** 3.94

**Q.** Which protein stability index does the source give for GWGTGSPPKWQIGEQEFEALMRML here?
**A.** 2.8

**Q.** For GYGTGSPPKWQIGEQEFEALMRML, which protein stability index is on record?
**A.** 2.28

**Q.** For GEATGSPPKWQIGEQEFEALMRML, which protein stability index is on record?
**A.** 3.42

**Q.** For GECTGSPPKWQIGEQEFEALMRML, which protein stability index is on record?
**A.** 3.6

**Q.** With GEDTGSPPKWQIGEQEFEALMRML as the variant, how does the protein stability index read?
**A.** 3.19

**Q.** For GEETGSPPKWQIGEQEFEALMRML, which protein stability index is on record?
**A.** 3.07

**Q.** Which protein stability index does the source give for GEFTGSPPKWQIGEQEFEALMRML here?
**A.** 2.89

**Q.** Which protein stability index does the source give for GEHTGSPPKWQIGEQEFEALMRML here?
**A.** 2.94

**Q.** For GEITGSPPKWQIGEQEFEALMRML, which protein stability index is on record?
**A.** 3

**Q.** For GEKTGSPPKWQIGEQEFEALMRML, which protein stability index is on record?
**A.** 2.64

**Q.** For GELTGSPPKWQIGEQEFEALMRML, which protein stability index is on record?
**A.** 3.45

**Q.** With GEMTGSPPKWQIGEQEFEALMRML as the variant, how does the protein stability index read?
**A.** 3.01

**Q.** With GENTGSPPKWQIGEQEFEALMRML as the variant, how does the protein stability index read?
**A.** 3.51

**Q.** Which protein stability index does the source give for GEPTGSPPKWQIGEQEFEALMRML here?
**A.** 3.14

**Q.** With GEQTGSPPKWQIGEQEFEALMRML as the variant, how does the protein stability index read?
**A.** 3.8

**Q.** With GERTGSPPKWQIGEQEFEALMRML as the variant, how does the protein stability index read?
**A.** 3.14

**Q.** Which protein stability index does the source give for GESTGSPPKWQIGEQEFEALMRML here?
**A.** 2.87

**Q.** Which protein stability index does the source give for GETTGSPPKWQIGEQEFEALMRML here?
**A.** 3.54

**Q.** With GEVTGSPPKWQIGEQEFEALMRML as the variant, how does the protein stability index read?
**A.** 3.41

**Q.** With GEWTGSPPKWQIGEQEFEALMRML as the variant, how does the protein stability index read?
**A.** 2.49

**Q.** Which protein stability index does the source give for GEYTGSPPKWQIGEQEFEALMRML here?
**A.** 3.63

**Q.** For GEGAGSPPKWQIGEQEFEALMRML, which protein stability index is on record?
**A.** 3.63

**Q.** Which protein stability index does the source give for GEGCGSPPKWQIGEQEFEALMRML here?
**A.** 2.94

**Q.** For GEGDGSPPKWQIGEQEFEALMRML, which protein stability index is on record?
**A.** 2.96

**Q.** For GEGEGSPPKWQIGEQEFEALMRML, which protein stability index is on record?
**A.** 3.51

**Q.** Which protein stability index does the source give for GEGFGSPPKWQIGEQEFEALMRML here?
**A.** 2.35

**Q.** With GEGGGSPPKWQIGEQEFEALMRML as the variant, how does the protein stability index read?
**A.** 3.14

**Q.** Which protein stability index does the source give for GEGHGSPPKWQIGEQEFEALMRML here?
**A.** 3.19

**Q.** Which protein stability index does the source give for GEGIGSPPKWQIGEQEFEALMRML here?
**A.** 2.75

**Q.** For GEGKGSPPKWQIGEQEFEALMRML, which protein stability index is on record?
**A.** 2.13

**Q.** For GEGLGSPPKWQIGEQEFEALMRML, which protein stability index is on record?
**A.** 3.38

**Q.** With GEGMGSPPKWQIGEQEFEALMRML as the variant, how does the protein stability index read?
**A.** 3.01

**Q.** With GEGNGSPPKWQIGEQEFEALMRML as the variant, how does the protein stability index read?
**A.** 3.07

**Q.** For GEGPGSPPKWQIGEQEFEALMRML, which protein stability index is on record?
**A.** 3.06

**Q.** For GEGQGSPPKWQIGEQEFEALMRML, which protein stability index is on record?
**A.** 3.08

**Q.** Which protein stability index does the source give for GEGRGSPPKWQIGEQEFEALMRML here?
**A.** 3.44

**Q.** Which protein stability index does the source give for GEGSGSPPKWQIGEQEFEALMRML here?
**A.** 3.08

**Q.** For GEGVGSPPKWQIGEQEFEALMRML, which protein stability index is on record?
**A.** 2.98

**Q.** For GEGWGSPPKWQIGEQEFEALMRML, which protein stability index is on record?
**A.** 2.36

**Q.** For GEGYGSPPKWQIGEQEFEALMRML, which protein stability index is on record?
**A.** 3.26

**Q.** With GEGTASPPKWQIGEQEFEALMRML as the variant, how does the protein stability index read?
**A.** 3.39

**Q.** For GEGTCSPPKWQIGEQEFEALMRML, which protein stability index is on record?
**A.** 2.86

**Q.** For GEGTDSPPKWQIGEQEFEALMRML, which protein stability index is on record?
**A.** 3.15

**Q.** With GEGTESPPKWQIGEQEFEALMRML as the variant, how does the protein stability index read?
**A.** 3.21

**Q.** With GEGTFSPPKWQIGEQEFEALMRML as the variant, how does the protein stability index read?
**A.** 2.46

**Q.** For GEGTHSPPKWQIGEQEFEALMRML, which protein stability index is on record?
**A.** 3.12
